Laboratory results reported in patent US20250320501A1, “PALMITOYLATION OF THE ALTERNATIVE AMINO TERMINUS OF THE BTK-C ISOFORM CONTROLS SUBCELLULAR DISTRIBUTION AND SIGNALING” (The Research Foundation for the State University of New York, priority 2022, published 2025).

Tested on: BTK-A and BTK-C
Assay: Activating phosphorylation of BTK isoforms after stimulation with other ligands
Assay type: cell-based, human
Conditions: ligand stimulation (not shown)

B1: RANKL: ligand used for stimulation of BTK activation (protein, UniProt O14788 140-317, looked up)
Tumor necrosis factor ligand …: IRAEKAMVDGSWLDLAKRSKLEAQPFAHLTINATDIPSGSHKVSLSSWYHDRGWAKISNMTFSNGKLIVNQDGFYYLYANICFRHHETSGDLATEYLQLMVYVTKTSIKIPSSHTLMKGGSTKYWSGNSEFHFYSINVGGFFKLRSGEEISIEVSNPSLLDPDQDATYFGAFKVRDID
With B1 the “increase of activating phosphorylation levels above unstimulated levels” value was “only modestly”.
